# Reference: paper PMC10610913, “Saturation mutagenesis of α-synuclein reveals monomer fold that modulates aggregation” (Science Advances, 2023)
# B1: aSyn amino acids 35 to 110, CFP/YFP (domain or fragment)
# chain: not shown
# Molecular target: the molecule itself
# Assay: FRET or BRET; HEK293T biosensor cells co-expressing the CFP and the YFP fusion of one aSyn variant, seeded with increasing amounts of sonicated recombinant full-length aSyn(WT) fibrils with Lipofectamine 2000, 48 h, CFP-YFP FRET by flow cytometry, normalized to aSyn(WT) with 100 nM fibrils
protein,measurement,value
B1,fold sensitivity of the biosensor against full-length WT aSyn,≥ 4 fold
